Like-named read-outs stand apart in the source and are kept apart here.
T1: FcγRIIb (Pichia pastoris produced) (UniProt P31994 43-217, limits assumed)
T1 construct: also called FcgRIIB; CD32B
T1 sequence (looked up): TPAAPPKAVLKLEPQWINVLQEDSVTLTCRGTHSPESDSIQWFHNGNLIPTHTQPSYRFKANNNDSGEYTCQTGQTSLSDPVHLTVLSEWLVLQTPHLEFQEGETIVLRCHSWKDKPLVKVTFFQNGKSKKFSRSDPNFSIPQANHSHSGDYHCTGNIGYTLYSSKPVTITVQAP

T2: FcγRIIa (Pichia pastoris produced) (UniProt P12318 34-217, limits assumed)
T2 construct: also called CD32A
T2 sequence (looked up): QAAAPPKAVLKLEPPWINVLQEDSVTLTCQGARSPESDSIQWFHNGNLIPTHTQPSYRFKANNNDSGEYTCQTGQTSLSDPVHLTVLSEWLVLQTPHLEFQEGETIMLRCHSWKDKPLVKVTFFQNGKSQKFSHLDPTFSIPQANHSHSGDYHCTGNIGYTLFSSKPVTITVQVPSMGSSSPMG

B1: 1F11 wildtype (parent) humanized anti-PCSK9 monoclonal IgG1 antibody (antibody)
heavy: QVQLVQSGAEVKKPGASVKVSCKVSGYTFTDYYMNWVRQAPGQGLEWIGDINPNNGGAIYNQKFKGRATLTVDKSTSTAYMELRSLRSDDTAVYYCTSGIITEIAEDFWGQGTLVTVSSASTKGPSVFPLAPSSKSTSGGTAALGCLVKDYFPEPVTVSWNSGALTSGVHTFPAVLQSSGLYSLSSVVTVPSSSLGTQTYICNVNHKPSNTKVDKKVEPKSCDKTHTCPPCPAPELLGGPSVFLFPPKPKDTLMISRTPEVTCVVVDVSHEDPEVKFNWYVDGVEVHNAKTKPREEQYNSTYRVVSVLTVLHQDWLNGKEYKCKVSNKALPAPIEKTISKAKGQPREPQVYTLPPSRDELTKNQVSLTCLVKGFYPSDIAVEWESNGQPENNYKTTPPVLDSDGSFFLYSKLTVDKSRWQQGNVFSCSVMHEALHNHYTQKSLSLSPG
light: DIQMTQSPSSLSASVGDRVTITCKASQNVGTNVVWYQQKPGKAPKALIHSASYRYSGVPSRFSGSGSGTDFTLTISSLQPEDFATYYCQQYKTYPYTFGQGTKVEIKRTVAAPSVFIFPPSDEQLKSGTASVVCLLNNFYPREAKVQWKVDNALQSGNSQESVTEQDSKDSTYSLSSTLTLSKADYEKHKVYACEVTHQGLSSPVTKSFNRGEC
notes: Produced in glycoengineered Pichia pastoris GFI5.0 (strain YGLY21351); also called 1F11 IgG1 GS5.0; YGLY21351
B2: 1F11 IgG1 F243A/V264A double mutein anti-PCSK9 antibody (antibody)
heavy: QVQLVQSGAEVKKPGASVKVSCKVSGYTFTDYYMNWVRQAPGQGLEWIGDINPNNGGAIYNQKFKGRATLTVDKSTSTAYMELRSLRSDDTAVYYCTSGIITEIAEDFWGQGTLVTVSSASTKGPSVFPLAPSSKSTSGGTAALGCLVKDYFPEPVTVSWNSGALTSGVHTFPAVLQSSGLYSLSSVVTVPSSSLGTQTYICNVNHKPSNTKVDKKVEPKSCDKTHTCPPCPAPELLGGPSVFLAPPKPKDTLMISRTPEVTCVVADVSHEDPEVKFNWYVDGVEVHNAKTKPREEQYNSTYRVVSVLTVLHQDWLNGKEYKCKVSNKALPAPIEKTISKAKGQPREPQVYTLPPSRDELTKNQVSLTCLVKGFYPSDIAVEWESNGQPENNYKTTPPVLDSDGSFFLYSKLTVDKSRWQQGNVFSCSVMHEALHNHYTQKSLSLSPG
light: B1 light
notes: sialylated N-glycans; also called 1F11 DM; YGLY23258

Tests used:
wild-type human PCSK9 = target: T3, wild-type human PCSK9 (human, UniProt Q8NBP7 31-692, limits assumed); assay: SPR (Biacore T100), average KD of the two 1F11 runs
T3 construct: also called PCSK9 antigen
Experimental: The CM5 chip was immobilized on all flowcells with mouse anti-human IgG (Fc specific) according to the Biacore Human Antibody Capture Kit (Cat# BR-1008-39) to ˜7000RU. Anti-PCSK9 antibodies were captured on the chip to ˜500RU followed by analyte injections of wild-type human PCSK9 from 64.1 nM to 2.0 nM. Each flowcell was regenerated between each analyte injection with 3M MgCl for 40 seconds at 10 uL/min. Data was analyzed with Biacore T100 Evaluation Software using the 1:1 binding model using at least 5 point concentration range sensogram.

[1] = target: T1, FcγRIIb (Pichia pastoris produced); assay: ELISA-type plate assay, FcγR coated, antibody dimerized with AP-conjugated goat anti-human IgG F(ab')2, RFU readout
Experimental: (§1) Fcγ receptor binding assays were carried out as described (Shields, et al. (2001) J. Biol. Chem. 276:6591-6604) with minor modifications. High protein binding 96-well plates (Corning Costar) were coated with 100 μL per well of Fcγ receptor solutions in PBS at the following concentrations: 1 μg/mL for both FcγRI (R&D Systems) and FcγRIIa (Pichia pastoris produced), 2 μg/mL for FcγRIIb (P. pastoris produced), 0.8 μg/mL for FcγRIIIa-F158, and 0.4 μg/mL for FcγRIIIa-V158 (both P. pastoris produced). All Pichia pastoris produced receptors were expressed and purified as described (Li, et al. (2006) Nature Biotechnology 24:210-215). Monomeric antibody samples added to the FcγRI plate were serially diluted in assay diluent (1×PBS, 1% BSA, and 0.05% Tween20) and 100 μL, per well was added to the plate. Antibody samples prepared for the remaining receptors require a one hour dimerization step with half molar ratio of goat anti-human IgG F(ab′)2 F(ab′)2 that is conjugated with alkaline phosphatase for detection. These dimerized F(ab′)2/antibody complexes were also serially diluted and 100 μL per well were added to the remaining receptor plates and all plates were incubated for one hour at room temperature. FcγRI bound sample antibody was detected using the same goat anti-human IgG F(ab′)2 alkaline phosphatase conjugated F(ab′)2. Sample antibody binding was quantified by measuring excitation at 340 nm and emission at 465 nm after 18 hour incubation with SuperPhos, 4-MUP Fluorescence AP Substrate Detection System (Virolabs).

[2] = target: T4, FcγRIIIa-F158 (Pichia pastoris produced) (UniProt P08637 17-208, limits assumed); assay: as above
T4 construct: also called FcγRIIIA LF; FcgRIIIA LF
T4 sequence (P08637 17-208 limits assumed): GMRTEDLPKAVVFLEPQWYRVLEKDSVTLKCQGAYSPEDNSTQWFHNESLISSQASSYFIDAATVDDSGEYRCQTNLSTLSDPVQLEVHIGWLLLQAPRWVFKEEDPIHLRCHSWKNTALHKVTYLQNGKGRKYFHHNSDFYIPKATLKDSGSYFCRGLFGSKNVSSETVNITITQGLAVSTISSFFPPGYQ
Experimental: as §1

[3] = target: T1, FcγRIIb (Pichia pastoris produced); assay: as above; remark: listed apart in the source
Experimental: as §1

[4] = target: T4, FcγRIIIa-F158 (Pichia pastoris produced); assay: as above; remark: listed apart in the source
Experimental: as §1

[5] = target: T2, FcγRIIa (Pichia pastoris produced); assay: as above
Experimental: as §1

[6] = target: T4, FcγRIIIa-F158 (Pichia pastoris produced); assay: ELISA on plate-coated receptor; antibody dimerized with anti-human IgG F(ab')2-AP; ELISA IC50, YGLY23258 (dimer), Table 5 experiment
Experimental: as §1, with “These dimerized F(ab′)2/antibody complexes were also serially diluted and 100 μL per well were added to the remaining receptor plates and all plates were incubated for one hour at room temperature.” left out

[7] = target: T5, FcγRIIIa-V158 (Pichia pastoris produced) (UniProt P08637 17-208, limits assumed); assay: summary of the FcγR ELISAs; Table 8 summary: range of fold decrease over the ELISA experiments
T5 construct: also called FcγRIIIA LV; FcgRIIIA LV
T5 sequence (P08637 17-208 F176V limits assumed): as the sequence (P08637 17-208 limits assumed) above, with F160V counted along it
Experimental: as §1, with “These dimerized F(ab′)2/antibody complexes were also serially diluted and 100 μL per well were added to the remaining receptor plates and all plates were incubated for one hour at room temperature.” left out

[8] = target: T4, FcγRIIIa-F158 (Pichia pastoris produced); assay: as above
Experimental: as §1, with “These dimerized F(ab′)2/antibody complexes were also serially diluted and 100 μL per well were added to the remaining receptor plates and all plates were incubated for one hour at room temperature.” left out

[9] = target: T5, FcγRIIIa-V158 (Pichia pastoris produced); assay: fold change of the Table 12 affinities
Experimental: as §1

[10] = target: T4, FcγRIIIa-F158 (Pichia pastoris produced); assay: fold change of the Table 12 affinities
Experimental: as §1

[11] = target: T5, FcγRIIIa-V158 (Pichia pastoris produced); assay: ELISA on plate-coated receptor; antibody dimerized with anti-human IgG F(ab')2-AP; ELISA IC50, YGLY23258 (dimer), Table 7 experiment
Experimental: as §1, with “These dimerized F(ab′)2/antibody complexes were also serially diluted and 100 μL per well were added to the remaining receptor plates and all plates were incubated for one hour at room temperature.” left out

[12] = target: T4, FcγRIIIa-F158 (Pichia pastoris produced); assay: as above
Experimental: as §1, with “These dimerized F(ab′)2/antibody complexes were also serially diluted and 100 μL per well were added to the remaining receptor plates and all plates were incubated for one hour at room temperature.” left out

[13] = target: T1, FcγRIIb (Pichia pastoris produced); assay: fold change of the Table 12 affinities; Table 13 fold change computed from the Table 12 affinities
Experimental: as §1, with “These dimerized F(ab′)2/antibody complexes were also serially diluted and 100 μL per well were added to the remaining receptor plates and all plates were incubated for one hour at room temperature.” left out

Kd (wild-type human PCSK9) | EC50 (read off the curve) [1] | EC50 (read off the curve) [2] | EC50 (read off the curve) [3] | EC50 (read off the curve) [4] | EC50 (read off the curve) [5] | IC50 [6] | decreased affinity fold vs wildtype parent antibody produced in GS 5.0 [7] | decreased affinity fold vs wildtype parent antibody produced in GS 5.0 [8] | fold change in affinity vs 1F11 IgG1 GS5.0 [9] | fold change in affinity vs 1F11 IgG1 GS5.0 [10] | IC50 [11] | IC50 [12] | fold change in affinity vs 1F11 IgG1 GS5.0 [13] | Binder
2.8 nM | ~0.1 µg/mL | ~0.02 µg/mL | ~0.2 µg/mL | ~0.02 µg/mL | ~0.03 µg/mL |  |  |  |  |  |  |  |  | B1
 |  |  |  |  |  | 0.94 µg/mL | 2 to 6 fold | 8 to 60 fold | 647 fold | 12 fold | 0.16 µg/mL | 1.31 µg/mL | 3 fold | B2
